Sequences and labels used below:
B1: HDV Ribozyme (parent)
chain: GGCCGGCAUGGUCCCAGCCUCCUCGCUGGCGCCGGCUGGGCAACAUUCCGAGGGGACCGUCCCCUCGGUAAUGGCGAAUGGGACCCA

Among the data in the RNAGym collection of RNA variant scans (doi:10.7554/elife.80360) are self-cleavage values, retold here.

Variants of B1 are the subject of this data set. Kind of data set: self-cleavage, relative activity (ratio to wild type); higher = more cleavage; co-transcriptional.
As for GGCCGGCAUGGUCCCAGCCUCCUUGCUGGCGCCGGCUGGGCAACAUUCCGAGGGGACCGUCCCGUCGGUAAUGGCGAAUGGGACCCA, the self-cleavage was determined as 0.779.

In the case of GGCCGGCAUGGUCCCAGCCUCCUCACUGGCGCCGGCUGGGCAACUUUCCGAGGGGACCGUCCCCUCGGUAAUGGCGAAUGGGACCCA, the self-cleavage came to 0.0489.

Consider GCCCGGCAUGGUCCCAGCCUCCUGGCUGGCGCCGGCUGGGCAACAUUCCGAGGGGACCGUCCCCUCGGUAAUGGCGAAUGGGACCCA, for which the self-cleavage was found to be 0.0361.

Turning to GGCCGGCAUGGUCCCAGCCUCCUCGCUGGCGCCGGCAGGGCAACAUUCCGAGGGGACCGGCCCCUCGGUAAUGGCGAAUGGGACCCA, the self-cleavage came to 0.192.

For the variant GUCCGGCAUGGUCCCAGCCUCCUCGCUGGCGCCGGCUGGGCAACAUUCCGAGGGGACCGUCCCCUCGGUAAUGGCGAAUGGGACCCG, the self-cleavage was determined as 0.0468.

In the case of GGCCGGCAUGGUCCCAGCCUCCUCGCUGGCGCCGGCUGGGCAACAUUCCGAGGCGACCGUCCCAUCGGUAAUGGCGAAUGGGACCCA, the self-cleavage was determined as 0.574.

Turning to GGCCGGCAUGGUCCCAGCCUCCUCGCUGGCGCCGGCUGGGCAACUUUCCGAGGGGACCGUCCCCUCGGUAAUGGCGAAUGUGACCCA, the self-cleavage stood at 0.277.

Regarding GGCCGGCUUGGUCCCAGCAUCCUCGCUGGCGCCGGCUGGGCAACAUUCCGAGGGGACCGUCCCCUCGGUAAUGGCGAAUGGGACCCA, the self-cleavage came out at 0.

Regarding GGCCGGUAUGGUCCCAGCCUCCUCGCUGGCGCCGGCUGGGCAACAUUCCGAGGGGACCGUCCCCUCGGUAAUGGCGAAUGGGUCCCA, the self-cleavage is 0.0852.

With GGCCGGCAUGGUCCCAUCCUCCUCGUUGGCGCCGGCUGGGCAACAUUCCGAGGGGACCGUCCCCUCGGUAAUGGCGAAUGGGACCCA, the self-cleavage worked out at 0.654.

On to GCCCGGCAUGGUCCCAGCCUCCUCGCUGGCGCCCGCUGGGCAACAUUCCGAGGGGACCGUCCCCUCGGUAAUGGCGAAUGGGACCCA, for which the self-cleavage stood at 0.

On to GGCCGGCAUGGUCCCAGCCUCCUCGCUGGCGCCGGCUGGGCACCAUUCCGAGGGGACCGUCCCCUCGGUAAUGGCGAAAGGGACCCA, for which the self-cleavage amounted to 0.0791.

As to GGCCGGCAUGGUCCCAGCCUCCCCGCUGGCGCCGGCUGGGCAACAUGCCGAGGGGACCGUCCCCUCGGUAAUGGCGAAUGGGACCCA, the self-cleavage is 1.28.

As for GGCCGGCAUGGUCCCAACCUCCUCGCUGGCGCCGGCUGGGCAACAUUCCGAGGGGACCGUCCCCUCGGUAAUGGCGAAUGGGACCUA, the self-cleavage was 0.885.

As for GGCCGGUAUGGUCCCAGCCUCCUCGCUGGCGCCGGCUGGGCAACAUUCCGAGGGGACUGUCCCCUCGGUAAUGGCGAAUGGGACCCA, the self-cleavage stood at 1.19.

On to GGCCGGCAUGGUCCCAGCCUCCUCGCUGGCGCCGGCUGGGCAACAUUCCGAGGGGACCGUCCCCUCGGUAAUGGCGAAUGGGACUAA, for which the self-cleavage was found to be 0.923.

As to GGCCGGCAUGAUCCCAGCCUCCUCGCUGGCGCCGGCUGGGCCACAUUCCGAGGGGACCGUCCCCUCGGUAAUGGCGAAUGGGACCCA, the self-cleavage turned out to be 0.101.

GGACGGCAUGGUCCCAGCCUCCUCGCUGGCGCCGGCUGGGCAACAUUCCGAGGGGACCGUCCCCUCGGUAAUGGCAAAUGGGACCCA: the self-cleavage was determined as 0.783.

GGCCGGCAUGGUCCCUGCCUCCUCGCUGGCGCCGGCUGGGCAACAUUCCGAGGGGACCGUCCCCUCGGGAAUGGCGAAUGGGACCCA: the self-cleavage amounted to 1.16.

Take GGCCGGCAUGGUCCCAGCCUCCUCGCGGGCGCCGGCUGGGCAACAUUCCGAGGGGACCGUCCCCUCGGUAAUGGCGAAUGGGCCCCA: the self-cleavage was found to be 0.831.

As to GGCCGGCAUGGUCCUAGCCUCCUCGCUGGCGCCGGCUGGGCAACAUUCCGACGGGACCGUCCCCUCGGUAAUGGCGAAUGGGACCCA, the self-cleavage worked out at 1.03.

As to GGCCGGCAUGGUCCCAGCCUCCUCGCUGGCGCCGGCUGGGCAACAUUCAGAGGGGACCGUCCCCUCGGUAAUGGCGAGUGGGACCCA, the self-cleavage came out at 0.665.

Turning to GGCCGGCAUGGUCCCAGCCUCCUCGCUGGCGCCGGCUGGGCAACAUUCCGAGAGGACCGUCCCCUCGGUAAUGGUGAAUGGGACCCA, the self-cleavage is 0.256.

With GGCCGGCAUGGUCCCAGCCUCCUCGCUGGCGCCGGCUGGGCAACAGUCCGAGGGGACCGUCCCCUCGGUAAUGGCGAAUGGGACGCA, the self-cleavage is 0.665.

GGCCGGCAUGGUCCCAGCCUCCGCGCUGGCGCCGGCUGGGCAACAUUCCGAGGGGACCGUGCCCUCGGUAAUGGCGAAUGGGACCCA: the self-cleavage is 0.628.

As to GGCCGGCAUGGUCCCAGCCUCCUCGCUGGCGCCGGCUGGGUAACAUUCCGAGGGGACCGUCCCCUCGGUAAUGGCGAAUGGAACCCA, the self-cleavage is 0.246.

For the variant GGCCGGCAUGGUCCCAGCCUCCUCGCUGGCGCCGGCUGGGCAACAUUCCGAGGGGGCGGUCCCCUCGGUAAUGGCGAAUGGGACCCA, the self-cleavage came to 0.911.

For the variant GGCCGGCAUGGUCCCAGCCUCCUCGCUGGCGCCGGCUGGGCAACAUUCCGAGGGGACCGUCCCCUCGGUAAUGGCGAAAGGGACGCA, the self-cleavage was found to be 0.997.

GGCCGGCAUGGUCCCAGCCUCCUCGCUGGCGCCGGCUGGGCAACAUUCCGAGGGGACAGUCCCCUCGGUAAUGACGAAUGGGACCCA: the self-cleavage worked out at 0.426.

With GGCCGGCAUGGUGCCAGCCUCAUCGCUGGCGCCGGCUGGGCAACAUUCCGAGGGGACCGUCCCCUCGGUAAUGGCGAAUGGGACCCA, the self-cleavage worked out at 0.0361.

Consider GGCCGGCAUGGUCCCAGCCUCCUCGCUGGCGACGGCUGGGCAACAUUCCGAGGGGACCGUCCCCUUGGUAAUGGCGAAUGGGACCCA, for which the self-cleavage was determined as 0.315.

In the case of GGCCGGCGUGGUCCCAGCCUCCUCGCUGGCGCCGGCUGGGCAACAUUCCGAGGGGACCGUCCCCUCGAUAAUGGCGAAUGGGACCCA, the self-cleavage came out at 1.03.
